B1: bacteriophage φ6 protein P1 (natural protein, UniProt P11126 1-769, looked up)
chain: MFNLKVKDLNGSARGLTQAFAIGELKNQLSVGALQLPLQFTRTFSASMTSELLWEVGKGNIDPVMYARLFFQYAQAGGALSVDELVNQFTEYHQSTACNPEIWRKLTAYITGSSNRAIKADAVGKVPPTAILEQLRTLAPSEHELFHHITTDFVCHVLSPLGFILPDAAYVYRVGRTATYPNFYALVDCVRASDLRRMLTALSSVDSKMLQATFKAKGALAPALISQHLANAATTAFERSRGNFDANAVVSSVLTILGRLWSPSTPKELDPSARLRNTNGIDQLRSNLALFIAYQDMVKQRGRAEVIFSDEELSSTIIPWFIEAMSEVSPFKLRPINETTSYIGQTSAIDHMGQPSHVVVYEDWQFAKEITAFTPVKLANNSNQRFLDVEPGISDRMSATLAPIGNTFAVSAFVKNRTAVYEAVSQRGTVNSNGAEMTLGFPSVVERDYALDRDPMVAIAALRTGIVDESLEARASNDLKRSMFNYYAAVMHYAVAHNPEVVVSEHQGVAAEQGSLYLVWNVRTELRIPVGYNAIEGGSIRTPEPLEAIAYNKPIQPSEVLQAKVLDLANHTTSIHIWPWHEASTEFAYEDAYSVTIRNKRYTAEVKEFELLGLGQRRERVRILKPTVAHAIIQMWYSWFVEDDRTLAAARRTSRDDAEKLAIDGRRMQNAVTLLRKIEMIGTTGIGASAVHLAQSRIVDQMAGRGLIDDSSDLHVGINRHRIRIWAGLAVLQMMGLLSRSEAEALTKVLGDSNALGMVVATTDIDPSL
notes: P1, major shell protein of the bacteriophage φ6 polymerase complex; atomic structure PDB 4K7H was fitted into the capsid map; also called P1 shell; source: self-assembled in vitro into P124 particles; copies: 120
B2: bacteriophage φ6 P2 RNA-dependent RNA polymerase (enzyme)
chain: PRRAPAFPLSDIKAQMLFANNIKAQQASKRSFKEGAIETYEGLLSVDPRFLSFKNELSRYLTDHFPANVDEYGRVYGNGVRTNFFGMRHMNGFPMIPATWPLASNLKKRADADLADGPVSERDNLLFRAAVRLMFSDLEPVPLKIRKGSSTCIPYFSNDMGTKIEIAERALEKAEEAGNLMLQGKFDDAYQLHQMGGAYYVVYRAQSTDAITLDPKTGKFVSKDRMVADFEYAVTGGEQGSLFAASKDASRLKEQYGIDVPDGFFCERRRTAMGGPFALNAPIMAVAQPVRNKIYSKYAYTFHHTTRLNKEEKVKEWSLCVATDVSDHDTFWPGWLRDLICDELLNMGYAPWWVKLFETSLKLPVYVGAPAPEQGHTLLGDPSNPDLEVGLSSGQGATDLMGTLLMSITYLVMQLDHTAPHLNSRIKDMPSACRFLDSYWQGHEEIRQISKSDDAILGWTKGRALVGGHRLFEMLKEGKVNPSPYMKISYEHGGAFLGDILLYDSRREPGSAIFVGNINSMLNNQFSPEYGVQSGVRDRSKRKRPFPGLAWASMKDTYGACPIYSDVLEAIERCWWNAFGESYRAYREDMLKRDTLELSRYVASMARQAGLAELTPIDLEVLADPNKLQYKWTEADVSANIHEVLMHGVSVEKTERFLRSVMPR
notes: P2, RNA-dependent RNA polymerase of bacteriophage φ6, 75 kDa, monomeric; X-ray structure PDB 1HHS was fitted into the density; also called P2 polymerase; source: self-assembled in vitro into P124 particles

Key:
[1] = biological target: rotavirus triple-layered particle, non-VP4 protein components (rotavirus (strain not stated)) (UniProt P12476); test: cryo-EM structure; rotavirus triple-layered particles, previously published data set (ref. 15); icosahedral reconstruction, subtraction of non-VP4 components, localized reconstruction and 3D classification of VP4 sub-particles
rotavirus triple-layered particle, non-VP4 protein components (rotavirus (strain not stated)), sequence (P12476 whole entry, looked up): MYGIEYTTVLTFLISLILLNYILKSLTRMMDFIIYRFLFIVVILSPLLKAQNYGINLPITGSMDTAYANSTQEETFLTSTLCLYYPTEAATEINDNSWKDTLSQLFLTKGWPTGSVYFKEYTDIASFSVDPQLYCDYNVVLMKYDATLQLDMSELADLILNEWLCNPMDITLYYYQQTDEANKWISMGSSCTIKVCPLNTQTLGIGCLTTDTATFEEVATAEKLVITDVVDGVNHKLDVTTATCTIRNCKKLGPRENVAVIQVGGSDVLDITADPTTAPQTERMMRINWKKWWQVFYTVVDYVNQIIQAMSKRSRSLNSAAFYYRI

[2] = biological target: the molecule itself; test: cryo-EM structure; φ6 P124 particles self-assembled in vitro from purified P1, P2 and P4 (molar ratio 120:120:72, 6% PEG 4000, room temperature, 90 min), separated by rate-zonal sucrose gradient centrifugation, 20 mM Tris pH 8.0; icosahedral reconstruction and localized reconstruction with 3D classification of sub-particles at the threefold axes
[3] = biological target: B1; test: as above; details: both partners purified

Molecule: rotavirus viral protein VP4 (from UniProt P12473 1-776) (natural protein)
- occupancy of VP4 [1]: 60 to 70%

Molecule: B1
- binding result [2]: binds

Molecule: B2
- stoichiometry N [3]: ~12 copies of P2 per particle

— PMC4667630, “Localized reconstruction of subunits from electron cryomicroscopy images of macromolecular complexes” (Nature Communications, 2015)
